In patent publication US20220204580A1 (AstraZeneca / MedImmune, published 2022):
Numbered stars: 1 amine (or outer) side, 2 acyl side, 3 side chain; on linkers, the order of the positions; unused ones are H or OH. Bridge positions count the residues as written; N and C are the ends. Square brackets hold non-standard residues; d marks the D form. Side chains are listed from the residue outwards. Ends that are not written are not given here. * marks the point of attachment. C18 diacid = O=C(O)CCCCCCCCCCCCCCCCC(=O)*; γGlu = O=C(O)[C@H](CCC(=O)[*:2])N[*:1]; Aib = CC(C)(N)C(=O)O

T1: human calcitonin receptor (human, UniProt P30988 25-474)
T1 sequence (looked up): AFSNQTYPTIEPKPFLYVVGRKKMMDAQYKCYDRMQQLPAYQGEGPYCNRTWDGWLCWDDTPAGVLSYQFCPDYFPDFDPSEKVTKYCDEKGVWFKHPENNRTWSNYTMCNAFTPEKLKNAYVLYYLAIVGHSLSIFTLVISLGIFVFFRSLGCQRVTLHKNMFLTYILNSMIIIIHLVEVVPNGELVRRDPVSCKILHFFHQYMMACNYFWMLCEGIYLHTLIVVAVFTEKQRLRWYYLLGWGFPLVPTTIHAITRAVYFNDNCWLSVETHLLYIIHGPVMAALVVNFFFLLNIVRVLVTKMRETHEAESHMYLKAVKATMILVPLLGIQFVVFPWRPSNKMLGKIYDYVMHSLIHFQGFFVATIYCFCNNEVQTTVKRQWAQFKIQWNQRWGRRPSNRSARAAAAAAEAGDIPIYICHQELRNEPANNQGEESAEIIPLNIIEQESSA

T2: human amylin receptor (calcitonin receptor co-expressed with receptor activity modifying protein, RAMP3) (human, UniProt P30988 25-474; O60896 24-148)
T2 sequence (looked up) 1: T1 sequence (looked up)
T2 sequence (looked up) 2: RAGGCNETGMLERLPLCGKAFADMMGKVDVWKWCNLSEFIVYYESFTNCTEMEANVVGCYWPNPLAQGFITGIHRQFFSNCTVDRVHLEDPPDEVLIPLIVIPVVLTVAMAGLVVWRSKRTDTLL

B1: Peptide 61 (SEQ ID NO: 61) (peptide)
peptide: K([γGlu-C18 diacid])CNTATCATQRLANFLVHSS[Aib]NFGP[dI]LPPTNVGSNTY-NH2
modifications: disulfide 2-7; N-terminus assumed
SMILES: CC[C@@H](C)[C@@H](NC(=O)[C@@H]1CCCN1C(=O)CNC(=O)[C@H](Cc1ccccc1)NC(=O)[C@H](CC(N)=O)NC(=O)C(C)(C)NC(=O)[C@H](CO)NC(=O)[C@H](CO)NC(=O)[C@H](Cc1c[nH]cn1)NC(=O)[C@@H](NC(=O)[C@H](CC(C)C)NC(=O)[C@H](Cc1ccccc1)NC(=O)[C@H](CC(N)=O)NC(=O)[C@H](C)NC(=O)[C@H](CC(C)C)NC(=O)[C@H](CCCNC(=N)N)NC(=O)[C@H](CCC(N)=O)NC(=O)[C@@H](NC(=O)[C@H](C)NC(=O)[C@@H]1CSSC[C@H](NC(=O)[C@@H](N)CCCCNC(=O)CC[C@H](NC(=O)CCCCCCCCCCCCCCCCC(=O)O)C(=O)O)C(=O)N[C@@H](CC(N)=O)C(=O)N[C@@H]([C@@H](C)O)C(=O)N[C@@H](C)C(=O)N[C@@H]([C@@H](C)O)C(=O)N1)[C@@H](C)O)C(C)C)C(=O)N[C@@H](CC(C)C)C(=O)N1CCC[C@H]1C(=O)N1CCC[C@H]1C(=O)N[C@H](C(=O)N[C@@H](CC(N)=O)C(=O)N[C@H](C(=O)NCC(=O)N[C@@H](CO)C(=O)N[C@@H](CC(N)=O)C(=O)N[C@H](C(=O)N[C@@H](Cc1ccc(O)cc1)C(N)=O)[C@@H](C)O)C(C)C)[C@@H](C)O
B2: Peptide 64 (SEQ ID NO: 64) (peptide)
peptide: K([γGlu-C18 diacid])CNTATCATQRLANFLVHSS[Aib]NFGPILPPTNVGSRTY-NH2
modifications: disulfide 2-7; N-terminus assumed
SMILES: CC[C@H](C)[C@H](NC(=O)[C@@H]1CCCN1C(=O)CNC(=O)[C@H](Cc1ccccc1)NC(=O)[C@H](CC(N)=O)NC(=O)C(C)(C)NC(=O)[C@H](CO)NC(=O)[C@H](CO)NC(=O)[C@H](Cc1c[nH]cn1)NC(=O)[C@@H](NC(=O)[C@H](CC(C)C)NC(=O)[C@H](Cc1ccccc1)NC(=O)[C@H](CC(N)=O)NC(=O)[C@H](C)NC(=O)[C@H](CC(C)C)NC(=O)[C@H](CCCNC(=N)N)NC(=O)[C@H](CCC(N)=O)NC(=O)[C@@H](NC(=O)[C@H](C)NC(=O)[C@@H]1CSSC[C@H](NC(=O)[C@@H](N)CCCCNC(=O)CC[C@H](NC(=O)CCCCCCCCCCCCCCCCC(=O)O)C(=O)O)C(=O)N[C@@H](CC(N)=O)C(=O)N[C@@H]([C@@H](C)O)C(=O)N[C@@H](C)C(=O)N[C@@H]([C@@H](C)O)C(=O)N1)[C@@H](C)O)C(C)C)C(=O)N[C@@H](CC(C)C)C(=O)N1CCC[C@H]1C(=O)N1CCC[C@H]1C(=O)N[C@H](C(=O)N[C@@H](CC(N)=O)C(=O)N[C@H](C(=O)NCC(=O)N[C@@H](CO)C(=O)N[C@@H](CCCNC(=N)N)C(=O)N[C@H](C(=O)N[C@@H](Cc1ccc(O)cc1)C(N)=O)[C@@H](C)O)C(C)C)[C@@H](C)O
B3: Peptide 60 (SEQ ID NO: 60) (peptide)
peptide: K([γGlu-C18 diacid])CNTATCATQRLANFLVHSS[Aib]NFGPIL[dP]PTNVGSNTY-NH2
modifications: disulfide 2-7; N-terminus assumed
SMILES: CC[C@H](C)[C@H](NC(=O)[C@@H]1CCCN1C(=O)CNC(=O)[C@H](Cc1ccccc1)NC(=O)[C@H](CC(N)=O)NC(=O)C(C)(C)NC(=O)[C@H](CO)NC(=O)[C@H](CO)NC(=O)[C@H](Cc1c[nH]cn1)NC(=O)[C@@H](NC(=O)[C@H](CC(C)C)NC(=O)[C@H](Cc1ccccc1)NC(=O)[C@H](CC(N)=O)NC(=O)[C@H](C)NC(=O)[C@H](CC(C)C)NC(=O)[C@H](CCCNC(=N)N)NC(=O)[C@H](CCC(N)=O)NC(=O)[C@@H](NC(=O)[C@H](C)NC(=O)[C@@H]1CSSC[C@H](NC(=O)[C@@H](N)CCCCNC(=O)CC[C@H](NC(=O)CCCCCCCCCCCCCCCCC(=O)O)C(=O)O)C(=O)N[C@@H](CC(N)=O)C(=O)N[C@@H]([C@@H](C)O)C(=O)N[C@@H](C)C(=O)N[C@@H]([C@@H](C)O)C(=O)N1)[C@@H](C)O)C(C)C)C(=O)N[C@@H](CC(C)C)C(=O)N1CCC[C@@H]1C(=O)N1CCC[C@H]1C(=O)N[C@H](C(=O)N[C@@H](CC(N)=O)C(=O)N[C@H](C(=O)NCC(=O)N[C@@H](CO)C(=O)N[C@@H](CC(N)=O)C(=O)N[C@H](C(=O)N[C@@H](Cc1ccc(O)cc1)C(N)=O)[C@@H](C)O)C(C)C)[C@@H](C)O
B4: Peptide 62 (SEQ ID NO: 62) (peptide)
peptide: K([γGlu-C18 diacid])CNTATCATQRLANF[dL]VHSS[Aib]NFGPILPPTNVGSNTY-NH2
modifications: disulfide 2-7; N-terminus assumed
SMILES: CC[C@H](C)[C@H](NC(=O)[C@@H]1CCCN1C(=O)CNC(=O)[C@H](Cc1ccccc1)NC(=O)[C@H](CC(N)=O)NC(=O)C(C)(C)NC(=O)[C@H](CO)NC(=O)[C@H](CO)NC(=O)[C@H](Cc1c[nH]cn1)NC(=O)[C@@H](NC(=O)[C@@H](CC(C)C)NC(=O)[C@H](Cc1ccccc1)NC(=O)[C@H](CC(N)=O)NC(=O)[C@H](C)NC(=O)[C@H](CC(C)C)NC(=O)[C@H](CCCNC(=N)N)NC(=O)[C@H](CCC(N)=O)NC(=O)[C@@H](NC(=O)[C@H](C)NC(=O)[C@@H]1CSSC[C@H](NC(=O)[C@@H](N)CCCCNC(=O)CC[C@H](NC(=O)CCCCCCCCCCCCCCCCC(=O)O)C(=O)O)C(=O)N[C@@H](CC(N)=O)C(=O)N[C@@H]([C@@H](C)O)C(=O)N[C@@H](C)C(=O)N[C@@H]([C@@H](C)O)C(=O)N1)[C@@H](C)O)C(C)C)C(=O)N[C@@H](CC(C)C)C(=O)N1CCC[C@H]1C(=O)N1CCC[C@H]1C(=O)N[C@H](C(=O)N[C@@H](CC(N)=O)C(=O)N[C@H](C(=O)NCC(=O)N[C@@H](CO)C(=O)N[C@@H](CC(N)=O)C(=O)N[C@H](C(=O)N[C@@H](Cc1ccc(O)cc1)C(N)=O)[C@@H](C)O)C(C)C)[C@@H](C)O
B5: Peptide 63 (SEQ ID NO: 63) (peptide)
peptide: K([γGlu-C18 diacid])CNTATCATQRLANFLVHSS[Aib]NFGPILPPTRVGSNTY-NH2
modifications: disulfide 2-7; N-terminus assumed
SMILES: CC[C@H](C)[C@H](NC(=O)[C@@H]1CCCN1C(=O)CNC(=O)[C@H](Cc1ccccc1)NC(=O)[C@H](CC(N)=O)NC(=O)C(C)(C)NC(=O)[C@H](CO)NC(=O)[C@H](CO)NC(=O)[C@H](Cc1c[nH]cn1)NC(=O)[C@@H](NC(=O)[C@H](CC(C)C)NC(=O)[C@H](Cc1ccccc1)NC(=O)[C@H](CC(N)=O)NC(=O)[C@H](C)NC(=O)[C@H](CC(C)C)NC(=O)[C@H](CCCNC(=N)N)NC(=O)[C@H](CCC(N)=O)NC(=O)[C@@H](NC(=O)[C@H](C)NC(=O)[C@@H]1CSSC[C@H](NC(=O)[C@@H](N)CCCCNC(=O)CC[C@H](NC(=O)CCCCCCCCCCCCCCCCC(=O)O)C(=O)O)C(=O)N[C@@H](CC(N)=O)C(=O)N[C@@H]([C@@H](C)O)C(=O)N[C@@H](C)C(=O)N[C@@H]([C@@H](C)O)C(=O)N1)[C@@H](C)O)C(C)C)C(=O)N[C@@H](CC(C)C)C(=O)N1CCC[C@H]1C(=O)N1CCC[C@H]1C(=O)N[C@H](C(=O)N[C@@H](CCCNC(=N)N)C(=O)N[C@H](C(=O)NCC(=O)N[C@@H](CO)C(=O)N[C@@H](CC(N)=O)C(=O)N[C@H](C(=O)N[C@@H](Cc1ccc(O)cc1)C(N)=O)[C@@H](C)O)C(C)C)[C@@H](C)O

These binders were tested against T1, human calcitonin receptor (assay: cell-based or functional assay).

| EC50 (cAMP production) [pM] | Binder |
| --- | --- |
| 654 | B1 |
| 1280 | B2 |
| 1030 | B3 |
| 7250 | B4 |
| 375 | B5 |

What follows are binders tested against T2, human amylin receptor (calcitonin …) (assay: cell-based or functional assay).

| EC50 (cAMP production) [pM] | Ratio (EC50 hCTR / EC50 hAMYR3) | Binder |
| --- | --- | --- |
| 99 | 7 | B1 |
| 149 | 9 | B2 |
| 96 | 11 | B3 |
| 167 | 43 | B4 |
| 76 | 5 | B5 |
